Experimental data reported in patent US20120294796A1 (MacroGenics, published 2012).

Experiments:
[1] = target: T1, human B7-H3 on the surface of human cell lines (human, UniProt Q5ZPR3 29-534); assay: FACS, fluorescein-labeled mAb, A498 cells
T1 construct: whole, on cells; also called B7-H3 present on the surface of cancer cells
T1 sequence (looked up): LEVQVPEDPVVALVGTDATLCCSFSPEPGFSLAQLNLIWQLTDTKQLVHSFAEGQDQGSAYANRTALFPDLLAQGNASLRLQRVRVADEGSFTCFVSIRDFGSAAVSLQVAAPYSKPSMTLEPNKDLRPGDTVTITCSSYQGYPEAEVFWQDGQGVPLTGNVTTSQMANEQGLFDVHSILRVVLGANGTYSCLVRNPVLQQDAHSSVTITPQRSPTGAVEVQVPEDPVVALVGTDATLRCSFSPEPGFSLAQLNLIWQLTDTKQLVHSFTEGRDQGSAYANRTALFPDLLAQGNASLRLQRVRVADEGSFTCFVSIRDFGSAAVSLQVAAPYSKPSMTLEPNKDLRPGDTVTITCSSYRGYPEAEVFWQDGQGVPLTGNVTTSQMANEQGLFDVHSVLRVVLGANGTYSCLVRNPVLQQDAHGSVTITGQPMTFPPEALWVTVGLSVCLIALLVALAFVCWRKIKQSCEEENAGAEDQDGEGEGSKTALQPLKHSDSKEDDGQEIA

[2] = target: T1, human B7-H3 on the surface of human …; assay: FACS, fluorescein-labeled mAb, A549 cells
[3] = target: T1, human B7-H3 on the surface of human …; assay: FACS, fluorescein-labeled mAb, LNCaP cells

B1: BRCA84D (antibody, IgG1, V domains shown)
VH: DVQLVESGGGLVQPGGSRKLSCAASGFTFSSFGMHWVRQAPEKGLEWVAYISSDSSAIYYADTVKGRFTISRDNPKNTLFLQMTSLRSEDTAMYYCGRGRENIYYGSRLDYWGQGTTLTVSS
VL: DIAMTQSQKFMSTSVGDRVSVTCKASQNVDTNVAWYQQKPGQSPKALIYSASYRYSGVPDRFTGSGSGTDFTLTINNVQSEDLAEYFCQQYNNYPFTFGSGTKLEIK
[1]
  FACS MFI: 30.6 MFI
[2]
  FACS MFI: 25 MFI
[3]
  FACS MFI: 16.4 MFI

B2: BRCA69D (antibody, IgG1, V domains shown)
VH: QVQLQQSGAELARPGASVKLSCKASGYTFTSYWMQWVKQRPGQGLEWIGTIYPGDGDTRYTQKFKGKATLTADKSSSTAYMQLSSLASEDSAVYYCARRGIPRLWYFDVWGAGTTVTVSS
VL: DIQMTQTTSSLSASLGDRVTISCRASQDISNYLNWYQQKPDGTVKLLIYYTSRLHSGVPSRFSGSGSGTDYSLTIDNLEQEDIATYFCQQGNTLPPTFGGGTKLEIK
notes: also called BRCA69A (probable misprint)
[1]
  FACS MFI: 84.1 MFI
[2]
  FACS MFI: 60.5 MFI
[3]
  FACS MFI: 92.4 MFI

B3: PRCA157 (antibody, IgG1, V domains shown)
VH: EVQQVESGGDLVKPGGSLKLSCAASGFTFSSYGMSWVRQTPDKRLEWVATINSGGSNTYYPDSLKGRFTISRDNAKNTLYLQMRSLKSEDTAMYYCARHDGGAMDYWGQGTSVTVSS
VL: DIQMTQSPASLSVSVGETVTITCRASESIYSYLAWYQQKQGKSPQLLVYNTKTLPEGVPSRFSGSGSGTQFSLKINSLQPEDFGRYYCQHHYGTPPWTFGGGTNLEIK
[1]
  FACS MFI: 58.8 MFI
[2]
  FACS MFI: 44.3 MFI
[3]
  FACS MFI: 16.4 MFI
